# From the FLAb antibody collection (doi:10.7554/elife.23156)
# B1: scFv; the commonest letter at each place (parent)
# chain 1: EVKLDETGGGLVQPGRPMKLSCVASGFTFSDYWMNWVRQSPEKGLEWVAQIRNKPYNYETYYSDSVKGRFTISRDDSKSSVYLQMNNLRVEDMGIYYCTGSYYGMDYWGQGTSVTVS
# chain 2: DVVMTQTPLSLPVSLGDQASISCRSSQSLVHSNGNTYLRWYLQKPGQSPKVLIYKVSNRFSGVPDRFSGSGSGTDFTLKISRVEAEDLGVYFCSQSTHVPWTFGGGTKLEIK
# Columns and labels:
# fluorescein = variants of: B1; test: Kd (Tite-Seq); details: with fluorescein; format: scFv 4-4-20, heavy + light
# [1] = variants of: B1; test: yeast surface expression (ratio to wild type); higher = more expressed; details: format: scFv 4-4-20, heavy + light
Variant,Kd (fluorescein) [µM],yeast surface expression [1]
chain 1 G104L G109K,≥ 10,0.179
chain 1 T28F S30T,0.00468,0.857
chain 1 Y103P,≥ 10,0.791
chain 1 G104Y W108L,≥ 10,0.212
chain 1 D31M Y32N,≥ 10,0.536
chain 1 G104F W108F,≥ 10,0.387
chain 1 S30A V37Y,0.0391,1.1
chain 1 S101Y D106E,≥ 10,0.627
chain 1 Y102E M105P,≥ 10,0.839
chain 1 Y103T D106Y,≥ 10,0.37
chain 1 Y103V D106H,≥ 10,0.384
chain 1 F29E Y32V,≥ 10,0.811
chain 1 Y107F G109N,≥ 10,0.555
chain 1 W33F W36C,≥ 10,0.455
chain 1 F29P V37H,≥ 10,0.626
chain 1 D31L W36H,≥ 10,0.82
chain 1 G100C Y107S,2.88,0.64
chain 1 G100C Y107E,≥ 10,0.6
chain 1 Y32R W33I,≥ 10,0.763
chain 1 M105P Y107H,≥ 10,0.635
chain 1 Y103V Y107V,≥ 10,0.603
chain 1 Y103D W108H,3.74,0.708
chain 1 Y103S G109T,≥ 10,0.469
chain 1 Y102D,≥ 10,1.16
chain 1 G100S S101D,≥ 10,0.892
chain 1 Y32L V37R,≥ 10,0.0981
chain 1 G104K Y107P G109N,≥ 10,0.307

Variant,Kd (fluorescein) [µM],yeast surface expression [1]
chain 1 Y102K G104L D106G,≥ 10,0.302
chain 1 Y32R W36V,≥ 10,0.547
chain 1 F29L W33A,≥ 10,0.763
chain 1 T28V Y32N,≥ 10,0.765
chain 1 W33M V37P,≥ 10,0.458
chain 1 S101Y Y107E,≥ 10,0.625
chain 1 S30V D31P,≥ 10,0.754
chain 1 S30K N35I,≥ 10,0.879
chain 1 Y103F W108K,0.0171,0.318
chain 1 S30Y W36A,≥ 10,0.404
chain 1 Y103T W108S,≥ 10,0.244
chain 1 Y103T W108P,≥ 10,0.468
chain 1 S101C Y107T,≥ 10,0.62
chain 1 Y107E W108K,≥ 10,0.513
chain 1 G100N S101C,≥ 10,0.234
chain 1 D31R Y32I,≥ 10,0.818
chain 1 Y102K Y103M,1.14,1.08
chain 1 T28Y D31W V37T,0.00638,0.808
chain 1 S30H M34F,0.0015,0.945
chain 1 G104R M105C,≥ 10,0.315
chain 1 G100L G109V,≥ 10,0.253
chain 1 M34S,0.151,0.652
chain 1 S30E D31S,0.00239,0.987
chain 1 S30P N35G,0.00468,1.19
chain 1 Y103R G109V,≥ 10,0.47
chain 1 Y103H Y107Q,≥ 10,0.941

# Second part, led by results:
Kd (fluorescein) [µM],Variant,yeast surface expression [1]
≥ 10,chain 1 Y32K W33T,0.694
≥ 10,chain 1 Y103W G104P,1
≥ 10,chain 1 Y103E W108R,0.463
≥ 10,chain 1 Y32L W36F,0.728
≥ 10,chain 1 Y102H D106I,0.595
0.00142,chain 1 S30D M34F,1.22
≥ 10,chain 1 F29W W36Y,0.591
≥ 10,chain 1 Y102K Y103A D106W,0.439
≥ 10,chain 1 M34P V37A,0.897
≥ 10,chain 1 Y103Q M105G,0.906
0.0692,chain 1 F29K W33R,0.639
≥ 10,chain 1 S30F Y32Q,0.653
≥ 10,chain 1 S101I Y102L,0.376
0.921,chain 1 G100T,0.994
≥ 10,chain 1 Y103W W108S,0.526
≥ 10,chain 1 F29A M34V,0.827
≥ 10,chain 1 S30N W33D,1.05
≥ 10,chain 1 G100E S101V,0.225
0.00655,chain 1 T28A D31L,0.713
0.00239,chain 1 Y107S,0.77
0.000784,chain 1 Y107T,0.965
≥ 10,chain 1 Y103L M105G,1.02
≥ 10,chain 1 Y32R W33H W36S,0.723
≥ 10,chain 1 Y102G D106Y,0.496
≥ 10,chain 1 S101C G104V D106F,0.361

Kd (fluorescein) [µM],Variant,yeast surface expression [1]
≥ 10,chain 1 T28W F29P S30F,0.601
0.0015,chain 1 W36F,0.954
≥ 10,chain 1 G100M Y102V,0.856
≥ 10,chain 1 Y32T V37G,1.64
≥ 10,chain 1 S101E W108H,0.374
≥ 10,chain 1 D106Q W108G,0.384
0.00205,chain 1 S30D,0.919
≥ 10,chain 1 G100M M105P Y107D,0.325
≥ 10,chain 1 Y102M W108K,0.392
0.0592,chain 1 T28E M34S,0.742
≥ 10,chain 1 G100L G104S,0.51
≥ 10,chain 1 D31H N35A W36R,2.27
≥ 10,chain 1 G104S Y107T,0.831
≥ 10,chain 1 S101K Y103R,0.714
≥ 10,chain 1 S101Q G104P,0.539
0.00334,chain 1 Y102C,0.924
≥ 10,chain 1 T28N W33M,1.01
≥ 10,chain 1 Y32P V37Y,0.716
≥ 10,chain 1 Y102K G109Y,0.342
≥ 10,chain 1 S30A N35Y,0.655
≥ 10,chain 1 S101C Y103L,0.522
≥ 10,chain 1 M34K W36F,1.23
≥ 10,chain 1 S30H W33C,0.61
0.876,chain 1 F29N S30Q,1.02
≥ 10,chain 1 Y32M V37T,0.538

Kd (fluorescein) [µM],Variant,yeast surface expression [1]
≥ 10,chain 1 S30V M34H,0.497
0.00062,chain 1 D31H V37I,0.799
≥ 10,chain 1 Y103C G109Y,0.494
≥ 10,chain 1 S101N G109N,0.267
≥ 10,chain 1 M105A G109F,0.203
≥ 10,chain 1 G104H Y107M,0.478
2.23,chain 1 S30L Y32H,0.8
≥ 10,chain 1 G100I W108K,0.698
≥ 10,chain 1 S30W N35V,0.273
≥ 10,chain 1 D31V W36G,2.19
0.0534,chain 1 S30T W33F,0.909
≥ 10,chain 1 Y102E G104N,0.819
≥ 10,chain 1 S101D,0.888
1.14,chain 1 Y103M M105N,1.52
≥ 10,chain 1 S30N N35E,0.697
≥ 10,chain 1 F29M W33P,0.639
≥ 10,chain 1 Y102M Y103T,0.766
≥ 10,chain 1 M34D,0.406
0.00468,chain 1 Y107C W108V,0.304
0.205,chain 1 Y32A V37Y,1.23
≥ 10,chain 1 D31Q Y32R V37Q,0.133
0.021,chain 1 T28Q V37F,1.1
≥ 10,chain 1 G104T,0.599
≥ 10,chain 1 G104V,0.536
